Laboratory results: US20150197558A1 (published 2015)

Tests used:
Assay in all cases: ELISA, antigen coated
[1] = target: T1, IHF from Haemophilus influenzae (Haemophilus influenzae, UniProt P43723 1-96)
T1 construct: also called IHF (Hi); H. influenzae; not shown: poly-histidine tag
T1 sequence: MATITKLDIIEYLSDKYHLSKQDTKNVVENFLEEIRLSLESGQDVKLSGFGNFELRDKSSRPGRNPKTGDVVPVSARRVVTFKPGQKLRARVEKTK

[2] = target: T2, IHF from Klebsiella pneumoniae (Klebsiella pneumoniae, UniProt A6TAI1 1-99)
T2 construct: also called IHF (Kp); K. pneumoniae
T2 sequence: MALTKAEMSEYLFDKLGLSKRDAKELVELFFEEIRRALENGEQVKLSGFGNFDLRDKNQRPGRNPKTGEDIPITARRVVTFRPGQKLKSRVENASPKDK

[3] = target: T3, IHF from Pseudomonas aeruginosa (Pseudomonas aeruginosa, UniProt Q51472 2-100)
T3 construct: also called IHF (Pa); P. aeruginosa; not shown: poly-histidine tag
T3 sequence: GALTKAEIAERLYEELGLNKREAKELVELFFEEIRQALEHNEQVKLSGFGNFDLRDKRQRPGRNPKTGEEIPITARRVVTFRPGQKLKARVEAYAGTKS

[4] = target: T4, IHF from Acinetobacter baumannii (Acinetobacter baumannii, UniProt A3M2B0 1-98)
T4 construct: also called Ab
T4 sequence: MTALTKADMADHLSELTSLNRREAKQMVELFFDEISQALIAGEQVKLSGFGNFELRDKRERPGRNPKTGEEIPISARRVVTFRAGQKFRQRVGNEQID

Measured: binding result

B1: TRL1337 (antibody, V domains shown)
VH: QVQLLESGPGLVKPSETPSLTCTVSGGSIRSYYWSWIRQPPGKGLEWIGYIYYSGSTNYNPSLKSRVTISVDMSKNQFSLKLSSVTAADTAMYYCARVYGGSGSYDFDYWGQGTLVTVSS
VL: DIVLTQSPSASGSPGQSVTISCTGTSSDVGGYNYVSWYQQLPGKAPKLMIYEVTKRPSGVPDRFSGSKSGNTASLTVSGLQAEDEADYYCSSFAGSNNHVVFGGGTKLTVL
no binding: [1] | [2] | [3] | [4]
